Substrate in this data set: COc1cccc(OC)c1O
The data set can be described thus: purified protein. In kind it is biochemical, Obba rivulosa. Particulars: O2 co-substrate, error is 95% confidence interval.

Setting [1] is: pH 6.0, citrate phosphate buffer, 0-2 mM substrate.
[2] abbreviates: pH 3.5, citrate phosphate buffer, 0-31 mM substrate.

B1: rOrLcc2-L497V (variant rOrLcc2-D206N) (Obba rivulosa; D227N/L518V) (protein)
chain: AIGPVTDLTITDVSISPDGFERAAVLAGGTFPGPLITGNIGDNFQINVVNQLSNETMLESTTIHWHGLFQKGTAWADGPAFVSQCPIATGNSFLYDFSVPDQAGTFWYHSHLATQYCDGLRGPLVVYDPNDAYLSDYDVDDDTTVITLADWYHTAATLGPRFPTQADATLINGLGRYSGGPESNLTVITVESGKRYRFRLVSISCNENYVFSIDDHEMIVIEADGVETQPVTVDSIQIFAAQRYSFILNATEAVDNYWIRATPDLGTTGFTDGINSAILRYVGANDTDPTTASNTTNLLSELDLHPLTNAAAPGAASQDPGSVDVSMNLELGFDGTNFTINGATFVPPTVPVLLQILSGAQSATDLLPSGSVFTLPSNSTVQVTLAAGTVAGGPHPFHLHGHTFSVVRSAGSDTYNYDNPVQRDTVSIGADGDNVTIRFDTNNPGPWFLHCHIDWHLNAGFAIVFAEDTADIASANPVPDSWSDLCPTYDALPSDEV
notes: codon-optimized cDNA in pPicZalphaA, C-terminal L497V to remove possible ER-retention signal SDEL, secreted from Pichia pastoris X-33, purified in two steps
B1: under setting [1], the Michaelis-Menten constant (Km) was 38 ± 0 µM, the Vmax came to 150 µM/min, the kcat turned out to be 112 s⁻¹ and the kcat/Km was 2.95e+06 M⁻¹ s⁻¹.

B2: rOrLcc1 (variant rOrLcc1-D208N) (Obba rivulosa; D229N) (protein)
chain: AIGPVTDLVITDAFVTPDGPNLGREAVLAGGTFPGPLIQGNKGDNFQINVVNNLTNHTMLKTTSIHWHGLFQHGTNWADGPAFVNQCPIASGNSFLYNFNVPDQAGTFWYHSHLATQYCDGLRGPLVVYDPNDPYADLYDVDDESTVITLSDWYHAAASTLTFPTFDTTLINGLGRFAGTGGTDSDLAVITVEQGKRYRFRLAAISCNPNWVFSIDEHVMTIIEADAVNTLPLTVDAIQIFAAQRYSFVLNANQTVGNYWIRANPNNGNMGFANGINSAILRYSGATIEDPTTNSTIVNQLNEADLSPLTNPQAPGAPSQDPGAVDVAMNLAFSFNGTRLFINGVSFVPPSVPVLLQILSGSMTAQDLLPTGSVYTLPRNATVQISMPGNIIAGPHPFHLHGHTFSVIRSAGESDYNYDNPVQRDTVSIGGATDNVTIRFTTNNPGPWFLHCHIDWHLQAGFAIVFAEDTPDIASANPVPQAWSDLCPTYDALDPSDT
notes: codon-optimized cDNA in pPicZalphaA, secreted from Pichia pastoris X-33, purified in two steps
Consider B2, for which, under setting [2], the Km was determined as 3668 ± 270 µM, the Vmax amounted to 216 µM/min, the catalytic constant (kcat) is 44 s⁻¹ and the catalytic efficiency (kcat/Km) worked out at 12000 M⁻¹ s⁻¹.

By Km is commonly meant the substrate concentration at which the rate is half of its maximum. Usually Vmax stands for the top rate of the reaction or transport when substrate is in excess. By kcat is commonly meant the maximal rate divided by the concentration of active sites. In general, kcat/Km refers to the turnover number divided by the Michaelis constant.
